Series [1] deals with the molecule itself. Kind of series: solid-state NMR of homomeric fibrils.
Series [2] addresses T1, His6-YPet-mRIPK3_(379-486) (mouse, UniProt Q9QZL0 379-486).
T1 sequence (looked up): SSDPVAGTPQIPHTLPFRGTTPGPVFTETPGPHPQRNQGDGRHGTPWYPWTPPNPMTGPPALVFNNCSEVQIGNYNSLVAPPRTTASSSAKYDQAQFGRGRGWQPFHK
In words: SDS semi-denaturing agarose gel electrophoresis.

Series [3] concerns the molecule itself. In words: single molecule fluorescence.
Series [4] deals with T2, His6-YPet-hRIPK3_(387–518) (human, UniProt Q9Y572 387-518).
T2 sequence (looked up): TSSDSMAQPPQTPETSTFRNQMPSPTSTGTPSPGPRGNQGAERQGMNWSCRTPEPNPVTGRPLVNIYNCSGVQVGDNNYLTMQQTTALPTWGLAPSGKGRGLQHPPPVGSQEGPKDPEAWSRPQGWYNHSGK
In words: Two-Colour Coincidence Detection spectroscopy.

Series [5] concerns the molecule itself. In words: Thioflavin T fluorescence + negative stain transmission electron microscopy.

The source of these data is publication doi:10.1101/2025.03.26.644761 (bioRxiv, 2025).

B1: RIPK3_(387-518), RHIM-containing region of human RIPK3, tag removed (domain or fragment, UniProt Q9Y572 387-518, looked up)
chain: TSSDSMAQPPQTPETSTFRNQMPSPTSTGTPSPGPRGNQGAERQGMNWSCRTPEPNPVTGRPLVNIYNCSGVQVGDNNYLTMQQTTALPTWGLAPSGKGRGLQHPPPVGSQEGPKDPEAWSRPQGWYNHSGK
For B1, the binding result in series [1] is reported as “binds”.

B2: His6-M45_(1–90)-mCherry, wild type (domain or fragment, murine cytomegalovirus (MCMV), UniProt Q06A28 1-90, looked up)
chain: MDRQPKVYSDPDNGFFFLDVPMPDDGQGGQQTATTAAGGAFGVGGGHSVPYVRIMNGVSGIQIGNHNAMSIASCWSPSYTDRRRRSYPKT
Take B2: the binding result in series [2] and in series [3] was “binds” in each case.

B3: M45_(1-90), RHIM-containing N-terminal region of MCMV M45 (viral inhibitor of RIP activation), tag removed (domain or fragment, murine cytomegalovirus (MCMV), UniProt Q06A28 1-90, looked up)
chain: MDRQPKVYSDPDNGFFFLDVPMPDDGQGGQQTATTAAGGAFGVGGGHSVPYVRIMNGVSGIQIGNHNAMSIASCWSPSYTDRRRRSYPKT
Turning to B3, the binding result in series [1] is listed as “binds”.

B4: His6-M45_(1–90)-mCherry, AAAA mutant A (domain or fragment, murine cytomegalovirus (MCMV), UniProt Q06A28 1-90, looked up)
chain: MDRQPKVYSDPDNGFFFLDVPMPDDGQGGQQTATTAAGGAFGVGGGHSVPYVAAAAGVSGIQIGNHNAMSIASCWSPSYTDRRRRSYPKT
In the case of B4, the binding result in series [4] and in series [5] was “binds” throughout.

B5: His6-M45_(1–90)-mCherry, AAAA mutant C (domain or fragment, murine cytomegalovirus (MCMV), UniProt Q06A28 1-90, looked up)
chain: MDRQPKVYSDPDNGFFFLDVPMPDDGQGGQQTATTAAGGAFGVGGGHSVPYVRIMNGVSGAAAANHNAMSIASCWSPSYTDRRRRSYPKT
On to B5, for which the binding result in series [4] is listed as “binds”.

B6: His6-M45_(1–90)-mCherry, AAAA mutant E (domain or fragment, murine cytomegalovirus (MCMV), UniProt Q06A28 1-90, looked up)
chain: MDRQPKVYSDPDNGFFFLDVPMPDDGQGGQQTATTAAGGAFGVGGGHSVPYVRIMNGVSGIQIGNHNAAAAASCWSPSYTDRRRRSYPKT
B6: the binding result in series [4] is recorded as “binds”.

B7: His6-M45_(1–90)-mCherry, AAAA mutant D (domain or fragment, murine cytomegalovirus (MCMV), UniProt Q06A28 1-90, looked up)
chain: MDRQPKVYSDPDNGFFFLDVPMPDDGQGGQQTATTAAGGAFGVGGGHSVPYVRIMNGVSGIQIGAAAAMSIASCWSPSYTDRRRRSYPKT
With B7, the binding result in series [4] is “binds”.

B8: His6-M45_(1–90)-mCherry, AAAA mutant B (domain or fragment, murine cytomegalovirus (MCMV), UniProt Q06A28 1-90, looked up)
chain: MDRQPKVYSDPDNGFFFLDVPMPDDGQGGQQTATTAAGGAFGVGGGHSVPYVRIMNAAAAIQIGNHNAMSIASCWSPSYTDRRRRSYPKT
As to B8, the binding result in series [4] and in series [3] was “binds” in each case.
